From the supplement of paper PMC9732359
± gives the uncertainty stated by the source.

Test: protein stability index of a GFP-peptide fusion (yeast GPS) (PSI 1-4); higher = more stable; sorted into four equal gates, so the index is relative within each strain
In short: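 Mid-log yeast cultures in leucine-free medium, carrying a pooled plasmid library, were sorted into four equal gates by their GFP/Cherry fluorescence ratio. Each plasmid expressed Cherry along with GFP fused upstream of a tiled 17-residue yeast protein peptide. Plasmids recovered from each gate were PCR-amplified and Illumina-sequenced, with reads assigned to strains by barcodes. The protein stability index was obtained by summing each gate's read frequency weighted by its gate number.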

Sequence	protein stability index (pdr5∆)	protein stability index (san1∆)	protein stability index (ubr1∆)	protein stability index (doa10∆)
AFAGSKNDEVLGLLLPI [RPN1]	3.2 ± 0.14	3.05 ± 0.17	3.19 ± 0.13	–
IDRGLFRSLFFRSYMDQ [RPB2]	2.88 ± 0.27	1.86 ± 0.25	2.94 ± 0.084	3 ± 0.27
KNMGLVPMKEENLEESF [SSN2]	3.38 ± 0.13	2.95 ± 0.17	–	3.07 ± 0.2
VVSILEAGDSDILTTLA [RPL30]	2.92 ± 0.074	3.01 ± 0.068	3.03 ± 0.061	3.12 ± 0.059
DRREKAERTMSKKETKL [SMC2]	3.36 ± 0.092	3.19 ± 0.12	3.39 ± 0.099	3.31 ± 0.13
DPFFAQSEDLSHAVEFF [YML103C/NUP188]	3.17 ± 0.057	3.31 ± 0.045	3.14 ± 0.042	3.23 ± 0.056
NVANVSGSTEKAFKICE [SIR3]	2.91 ± 0.048	3.18 ± 0.043	3.11 ± 0.058	2.96 ± 0.054
IFSYGPHIQKMLSILEI [POP6]	1.93 ± 0.067	2.56 ± 0.15	2.24 ± 0.073	2.27 ± 0.12
LKTEKIFKEINEHSTSY [FAS1]	3.48 ± 0.2	–	–	3.29 ± 0.22
RGTDIDRINYTETALMN [SRB5]	2.98 ± 0.11	2.69 ± 0.082	2.73 ± 0.12	3.02 ± 0.26
VVDQLWSEISNELPDIE [RPN2]	2.94 ± 0.1	2.75 ± 0.12	2.69 ± 0.046	2.38 ± 0.12
KLNELDELILEAKERYT [NNF1]	3.17 ± 0.096	3.23 ± 0.058	2.82 ± 0.16	2.98 ± 0.11
TKPSDLTIKDIVLGVKD [RPO21]	2.15 ± 0.1	1.95 ± 0.15	2.83 ± 0.044	2.51 ± 0.085
LGGDSDEANIEIDPLTG [BRN1]	3.48 ± 0.27	2.92 ± 0.18	–	3.05 ± 0.18
KNTMFEKSDALVGVYRQ [SMC1]	2.88 ± 0.11	2.7 ± 0.081	2.94 ± 0.23	3.27 ± 0.18
YFFQLQIRSADEPMTTF [RPC11]	2.91 ± 0.068	3.06 ± 0.058	3.26 ± 0.071	2.77 ± 0.063
TRSALKLVRESELLGGT [QCR2]	2.5 ± 0.24	2.21 ± 0.16	–	2.51 ± 0.29
NPASATDNMSGRGLWNP [YJL039C/NUP192]	3.1 ± 0.082	2.8 ± 0.076	3.16 ± 0.075	2.71 ± 0.079
MNHDPFSWGRPADSTYG [PRE4]	3.28 ± 0.087	3.15 ± 0.057	3.22 ± 0.052	3.05 ± 0.086
REIHNEAESQLRAAQQQ [FAS2]	2.36 ± 0.07	2.86 ± 0.076	2.91 ± 0.053	2.91 ± 0.088
MVSTPELKKYMDKKILL [SMX2]	3.62 ± 0.12	3.26 ± 0.092	3 ± 0.074	3.25 ± 0.15
NPMVPSSVNEDTFLPPP [PRP8]	3.32 ± 0.06	3.01 ± 0.04	3.1 ± 0.043	3.05 ± 0.058
NLHALSMSLQSKNLGEI [SWI1]	2.61 ± 0.077	2.04 ± 0.17	2.66 ± 0.068	2.57 ± 0.058
MDLLKFSSLAISEINFL [CSI1]	2.49 ± 0.037	2.16 ± 0.053	2.35 ± 0.047	2.1 ± 0.045
AGVEDVYTQSNGKTRTL [RPS2]	3.21 ± 0.084	3.28 ± 0.066	3.48 ± 0.057	2.76 ± 0.11

Sequence	protein stability index (pdr5∆)	protein stability index (san1∆)	protein stability index (ubr1∆)	protein stability index (doa10∆)
QIANEFNTQQGIKKHSL [YDL116W/NUP84]	3.3 ± 0.049	3.18 ± 0.04	3.11 ± 0.038	3.01 ± 0.055
DLFSNNNYNSRIQLMND [MED1]	2.9 ± 0.25	2.93 ± 0.11	3.06 ± 0.13	3 ± 0.2
AINVFPEGYKAKSISTS [RPO31]	1.8 ± 0.057	2.27 ± 0.07	2.31 ± 0.059	2.03 ± 0.05
NLERLRSDLQSKIQEIE [YIL149C/MLP2]	3.37 ± 0.076	3.49 ± 0.073	3.33 ± 0.1	3.08 ± 0.077
ITSWYENHNKGKLWKDV [QCR9]	3.14 ± 0.23	3.3 ± 0.1	3.21 ± 0.13	2.81 ± 0.21
VNTEKKTIEVTAEINCF [RPN3]	1.35 ± 0.11	1.78 ± 0.21	1.62 ± 0.16	–
GNQQQQLQQQPQMQCAL [YGL172W/NUP49]	2.66 ± 0.19	2.87 ± 0.1	–	2.79 ± 0.17
EITEKKNGESLEGEEIK [RPN1]	3.03 ± 0.3	–	–	–
RSSRLHIVYSLLVNPDI [YML103C/NUP188]	2.01 ± 0.05	1.87 ± 0.075	2.26 ± 0.05	1.57 ± 0.047
SLKGYKIENSVQIGAEI [CSI1]	3.21 ± 0.2	3.25 ± 0.13	3.17 ± 0.17	–
IDETMMDKPLNFRILKS [SRB5]	3.09 ± 0.13	2.76 ± 0.087	2.79 ± 0.13	2.95 ± 0.14
DLLNAASIESADILCPL [IRR1]	2.24 ± 0.13	2.92 ± 0.12	2.79 ± 0.058	3.05 ± 0.2
AHVNKVTEETTKQIQSV [SIR4]	2.89 ± 0.078	2.98 ± 0.041	2.53 ± 0.061	2.81 ± 0.095
GTSLTIQHIAAAMVPFI [CDC53]	2.91 ± 0.046	2.6 ± 0.066	3.03 ± 0.043	2.75 ± 0.05
LPLATQQQVLNKLRQQA [SNF5]	–	–	–	2.56 ± 0.27
LRKQKDSSTTSSNSQQS [ITC1]	3.04 ± 0.066	3.07 ± 0.06	3.19 ± 0.059	3.12 ± 0.059
QQWGNDFYKRDPRIAPL [FAS2]	2 ± 0.048	1.87 ± 0.1	2 ± 0.05	1.88 ± 0.058
PLINRLKHYNGYDINYI [SWI1]	2.57 ± 0.051	2.76 ± 0.065	2.69 ± 0.043	2.41 ± 0.068
EEVEDQINPTRETNDDI [SNF2]	1.74 ± 0.082	1.45 ± 0.11	1.58 ± 0.062	2.25 ± 0.079
VVNITHHELVPKHIRLS [RPB5]	2.89 ± 0.062	3.01 ± 0.064	3.01 ± 0.056	2.52 ± 0.065
MYCRPAPSDFSENQRQI [GRR1]	2.62 ± 0.084	3.02 ± 0.078	2.66 ± 0.082	3.13 ± 0.085
LQFHVATYMDNDIAGQP [RPO21]	2.53 ± 0.073	2.6 ± 0.053	2.66 ± 0.056	2.6 ± 0.07
FEGNVATKAINGCIFTL [PRP8]	2.32 ± 0.049	1.97 ± 0.053	2.71 ± 0.05	2.57 ± 0.068
SVHLIECYKQLFLTAPD [YCS4]	–	–	–	1.52 ± 0.24
TRVTRLSLQRANVEILA [CSL4]	1.78 ± 0.043	1.78 ± 0.081	2.03 ± 0.033	1.64 ± 0.042

Sequence	protein stability index (pdr5∆)	protein stability index (san1∆)	protein stability index (ubr1∆)	protein stability index (doa10∆)
EIITSLSMRFQRETSGM [SRB8]	2.28 ± 0.18	–	2.47 ± 0.17	–
SPHYNSQKQTLIKKPLT [SSN3]	2.87 ± 0.056	2.46 ± 0.058	2.65 ± 0.036	2.52 ± 0.064
GNIISSDKTIVPTSIQT [SIN4]	2.61 ± 0.054	2.1 ± 0.076	2.77 ± 0.051	2.42 ± 0.061
GGFEDVEEYTWSSLLNE [RPB2]	3.19 ± 0.17	3.12 ± 0.085	–	–
DNSNVMTVKLESITYQK [RGR1]	2.43 ± 0.1	3.1 ± 0.12	2.93 ± 0.1	2.88 ± 0.096
VRNTAPNIRELGVKNLG [YCG1]	3.29 ± 0.22	–	2.98 ± 0.13	2.88 ± 0.2
GPNNFIWPAEDALRRGM [MED4]	3.15 ± 0.11	3.03 ± 0.079	3.27 ± 0.08	3.35 ± 0.13
TPGEVASKAIVQMAKIL [MCD1]	3 ± 0.11	–	–	3.26 ± 0.14
KNQLRDWIRFVSTKTNE [RPL22A]	2.22 ± 0.047	2.17 ± 0.068	2.61 ± 0.04	2.3 ± 0.046
AKLNHLKKLEKFMELER [SWI3]	2.83 ± 0.069	3.03 ± 0.054	2.66 ± 0.058	2.9 ± 0.064
TLLIAIRGSNRDLKPSN [YML103C/NUP188]	2.41 ± 0.13	2.52 ± 0.098	2.8 ± 0.087	1.92 ± 0.18
EKPLTPLKYTKLIAAAE [SNF6]	1.27 ± 0.12	1.22 ± 0.21	1.15 ± 0.2	1.25 ± 0.23
KKIMDETPSRLLLSPDQ [ITC1]	3.37 ± 0.065	3.21 ± 0.078	3.33 ± 0.041	3.04 ± 0.056
KLLKEKVKLFHGILDDL [MED2]	2.93 ± 0.13	3.09 ± 0.06	2.97 ± 0.14	3.1 ± 0.12
LSILNEIKKVTQIVAKF [SIN4]	2.39 ± 0.14	2.37 ± 0.11	2.87 ± 0.091	3.13 ± 0.16
IFGSGFGSADDTYPYLT [FAS1]	1.74 ± 0.059	1.73 ± 0.09	2.1 ± 0.078	2.3 ± 0.075
MSAPQAKILSQAPTELE [RPS7A]	2.9 ± 0.068	2.41 ± 0.1	2.53 ± 0.073	2.79 ± 0.08
ANSQIQAYEEIISSNEN [YIL149C/MLP2]	3.46 ± 0.17	3.31 ± 0.22	3.45 ± 0.12	2.95 ± 0.19
QLYEDLCRYEDTLSKLV [MED4]	2.67 ± 0.16	2.75 ± 0.27	3.25 ± 0.09	2.62 ± 0.097
QLEGFESRKAFFLGYMI [RPB2]	2.42 ± 0.075	1.41 ± 0.079	2.49 ± 0.045	1.22 ± 0.088
EEAKSVLPAATKKKSKF [ARP9]	2.25 ± 0.043	2.04 ± 0.06	2.31 ± 0.036	2.1 ± 0.062
VIRMVVLTAAGVERLIF [PRE3]	2.99 ± 0.13	2.42 ± 0.13	3.17 ± 0.14	2.33 ± 0.17
ILMQQQMMARMAQTATQ [SRP54]	2.22 ± 0.1	2.08 ± 0.12	2.63 ± 0.1	2.34 ± 0.14
